Measured values reported in article PMC4738300, “Physiological lipid composition is vital for homotypic ER membrane fusion mediated by the dynamin-related GTPase Sey1p” (Scientific Reports, 2016).

Key:
[1] = target: the molecule itself; test: pull-down; GST-Sey1p and His6-Sey1p, 4 uM each, mixed in RB150 (20 mM Hepes-NaOH pH 7.4, 150 mM NaCl, 10% glycerol) with 0.4% Triton X-100, 2 mM MgCl2 and 1 mM GTP, 4 °C; GST-Sey1p isolated on glutathione-Sepharose 4B; SDS-PAGE, Coomassie Blue
[2] = target: the molecule itself; test: proteoliposome docking assay (co-isolation of liposomes on streptavidin beads); biotin-labeled Sey1p proteoliposomes held on streptavidin magnetic beads and Rh-labeled Sey1p proteoliposomes (500 uM lipid each) in RB500 with 2 mM MgCl2 and 1 mM GTP, 30 °C, 30 min; Rh fluorescence of co-isolated liposomes; complete ER-mimicking lipids and four lipid subsets (Table 1)

B1: Sey1p (tagged full-length recombinant Sey1p: GST-His6-3C-Sey1p and His6-3C-Sey1p) (natural protein, S. cerevisiae, UniProt Q99287 1-776, looked up)
chain: MADRPAIQLIDEEKEFHQSALQYFQQCIGNRDVGLDYHVISVFGSQSSGKSTLLNVLFNTNFDTMDAQVKRQQTTKGIWLAHTKQVNTTIEIDNDRPDIFVLDVEGSDGSERGEDQDFERKAALFAIAVSEVLIVNMWEQQIGLYQGNNMALLKTVFEVNLSLFGKNDNDHKVLLLFVIRDHVGVTPLSSLSDSVTRELEKIWTELSKPAGCEGSSLYDYFDLKFVGLAHKLLQEDKFTQDVKKLGDSFVMKGTENYYFKPQYHHRLPLDGWTMYAENCWDQIERNKDLDLPTQQILVARFKTEEISNEALEEFISKYDESIAPLKGNLGSLTSQLVKLKEECLTKYDEQASRYARNVYMEKREALNTKLNSHISGTINEFLESLMEKLWDDLKLEVSSRDKATTSFVESVAAGKSKIEKEFNESMETFKKLGLLISNEEITCKFSDDIEERIKQLRDAELKAKIGRIKKNLVPELKDHVIHLLSHPSKKVWDDIMNDFESTIKDNISAYQVEKDKYDFKIGLSESENAKIYKNIRILAWRTLDTTVHDYLKIDTIVSILRDRFEDVFRYDAEGSPRLWKTEEEIDGAFRVAKEHALEVFEVLSLAVTSDNVEIIPDVPMAEEESGEDNEIYRDNEGVFHSRRFAHILTELQKENVLDQFRRQINITVLDSKRSIITTRTHIPPWIYVLLAVLGWNEFVAVIRNPLFVTLTLILGATFFVIHKFGLWGPVVNVVQSAVGETRTAIKDKLRQFVVEDHEVKESFEMKDFSKNEQKEK
notes: The bait copy is GST-His6-3C-Sey1p (pET-41 Ek/LIC) and the prey copy is His6-3C-Sey1p (pET-30 Ek/LIC); GST is on the bait copy only; The tags were not cleaved in the pull-down; also called GST-Sey1p; His6-Sey1p; source: E. coli Rosetta 2(DE3)pLysS, purified (COSMOGEL His-Accept beads, imidazole elution, dialysis; in 0.4% Triton X-100); not shown: His6, N-terminal, kept; GST, N-terminal, kept
- binding result [1]: binds

B2: untagged full-length Sey1p reconstituted into proteoliposomes (natural protein, S. cerevisiae)
chain: GPGMADRPAIQLIDEEKEFHQSALQYFQQCIGNRDVGLDYHVISVFGSQSSGKSTLLNVLFNTNFDTMDAQVKRQQTTKGIWLAHTKQVNTTIEIDNDRPDIFVLDVEGSDGSERGEDQDFERKAALFAIAVSEVLIVNMWEQQIGLYQGNNMALLKTVFEVNLSLFGKNDNDHKVLLLFVIRDHVGVTPLSSLSDSVTRELEKIWTELSKPAGCEGSSLYDYFDLKFVGLAHKLLQEDKFTQDVKKLGDSFVMKGTENYYFKPQYHHRLPLDGWTMYAENCWDQIERNKDLDLPTQQILVARFKTEEISNEALEEFISKYDESIAPLKGNLGSLTSQLVKLKEECLTKYDEQASRYARNVYMEKREALNTKLNSHISGTINEFLESLMEKLWDDLKLEVSSRDKATTSFVESVAAGKSKIEKEFNESMETFKKLGLLISNEEITCKFSDDIEERIKQLRDAELKAKIGRIKKNLVPELKDHVIHLLSHPSKKVWDDIMNDFESTIKDNISAYQVEKDKYDFKIGLSESENAKIYKNIRILAWRTLDTTVHDYLKIDTIVSILRDRFEDVFRYDAEGSPRLWKTEEEIDGAFRVAKEHALEVFEVLSLAVTSDNVEIIPDVPMAEEESGEDNEIYRDNEGVFHSRRFAHILTELQKENVLDQFRRQINITVLDSKRSIITTRTHIPPWIYVLLAVLGWNEFVAVIRNPLFVTLTLILGATFFVIHKFGLWGPVVNVVQSAVGETRTAIKDKLRQFVVEDHEVKESFEMKDFSKNEQKEK
notes: three extra N-terminal residues (Gly-Pro-Gly) left after 3C protease cleavage, printed in three-letter code; Inserted by its two C-terminal transmembrane domains into liposomes; Protein-to-lipid ratio 1/500 (mol/mol); also called untagged form of Sey1p; Sey1p proteoliposomes; not shown: His6, N-terminal, cleaved
- binding result [2]: binds
